The numbers were not newly measured in paper PMC6175838, which cites them from elsewhere.

Usually Kd stands for the constant that tells how readily two partners part at equilibrium.

One series deals with claudin-4 (Homo sapiens) (UniProt O14493). The series can be described thus: given as Ka.
The target of a further series is claudin-3 (Homo sapiens) (UniProt O15551). The series can be described thus: given as Ka.
Sequence of UniProt O15551 (O15551 whole entry): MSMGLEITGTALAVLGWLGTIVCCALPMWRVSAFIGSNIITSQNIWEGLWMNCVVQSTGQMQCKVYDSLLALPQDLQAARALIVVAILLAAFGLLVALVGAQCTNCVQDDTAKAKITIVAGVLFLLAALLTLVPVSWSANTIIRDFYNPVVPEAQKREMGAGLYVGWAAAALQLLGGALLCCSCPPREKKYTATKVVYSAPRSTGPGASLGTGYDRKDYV

Sequence of UniProt O14493 (O14493 whole entry): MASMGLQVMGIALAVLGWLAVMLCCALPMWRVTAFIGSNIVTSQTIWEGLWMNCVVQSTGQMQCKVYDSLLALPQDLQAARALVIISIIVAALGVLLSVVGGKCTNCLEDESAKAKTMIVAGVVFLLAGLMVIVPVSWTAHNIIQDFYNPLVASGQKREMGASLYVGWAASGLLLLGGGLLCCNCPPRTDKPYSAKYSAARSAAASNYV

As for “C-CPE C-terminal domain (from UniProt P01558)”, the Kd in the series with claudin-4 (Homo sapiens) and with claudin-3 (Homo sapiens) was 10 nM in each case.
